Test results from paper PMC9482650, “Quantitative fragmentomics allow affinity mapping of interactomes” (Nature Communications, 2022).

Columns and labels:
Test in all cases: holdup assay
Parameters in all cases: key: below the threshold = too weak to quantify, mostly under pKd 3.1 to 4
Details in all cases: plain residues with an end cap or a label only (N-terminal biotin on a linker: ado-ado)
[1] = molecular target: LAP2, Q96RT1
[2] = molecular target: MAGI2_3, Q86UL8
[3] = molecular target: T1, LRRC7, Q96NW7
T1 sequence (Q96NW7 1440-1537, limits assumed, looked up): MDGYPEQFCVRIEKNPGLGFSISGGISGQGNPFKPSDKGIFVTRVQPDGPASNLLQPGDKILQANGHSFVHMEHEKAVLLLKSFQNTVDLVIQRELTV

[4] = molecular target: T2, MPDZ_10, O75970
T2 sequence (O75970 1624-1722, limits assumed, looked up): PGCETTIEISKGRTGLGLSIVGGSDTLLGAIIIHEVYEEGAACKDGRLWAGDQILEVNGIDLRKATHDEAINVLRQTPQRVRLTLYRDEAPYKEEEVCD

[5] = molecular target: T3, DFNB31_3, Q9P202
T3 sequence (Q9P202 811-907, limits assumed, looked up): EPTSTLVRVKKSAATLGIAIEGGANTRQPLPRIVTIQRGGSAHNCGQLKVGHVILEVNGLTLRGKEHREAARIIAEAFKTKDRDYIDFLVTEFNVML

[6] = molecular target: T4, SIPA1L2, Q9P2F8
T4 sequence (Q9P2F8 945-1036, limits assumed, looked up): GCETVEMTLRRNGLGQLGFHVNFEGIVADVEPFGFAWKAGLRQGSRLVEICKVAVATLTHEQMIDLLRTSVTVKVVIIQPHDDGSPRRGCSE

[7] = molecular target: T5, GRIP1_7, Q9Y3R0
T5 sequence (Q9Y3R0 999-1096, limits assumed, looked up): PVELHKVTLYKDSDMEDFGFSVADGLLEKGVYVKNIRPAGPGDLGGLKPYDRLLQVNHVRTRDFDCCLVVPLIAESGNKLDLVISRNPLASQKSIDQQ

[8] = molecular target: Inadl_1, Q8NI35
[9] = molecular target: T6, PARD3B_1, Q8TEW8
T6 sequence (Q8TEW8 196-299, limits assumed, looked up): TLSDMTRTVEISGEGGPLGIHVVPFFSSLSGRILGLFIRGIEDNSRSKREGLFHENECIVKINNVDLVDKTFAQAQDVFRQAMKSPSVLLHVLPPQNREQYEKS

[10] = molecular target: T7, TIAM2, Q8IVF5
T7 sequence (Q8IVF5 885-986, limits assumed, looked up): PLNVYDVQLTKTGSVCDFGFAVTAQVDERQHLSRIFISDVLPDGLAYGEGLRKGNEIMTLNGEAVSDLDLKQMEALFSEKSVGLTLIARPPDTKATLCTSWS

[11] = molecular target: MAGI2_6, Q86UL8
[12] = molecular target: T8, DLG3_1, Q92796
T8 sequence (Q92796 125-227, limits assumed, looked up): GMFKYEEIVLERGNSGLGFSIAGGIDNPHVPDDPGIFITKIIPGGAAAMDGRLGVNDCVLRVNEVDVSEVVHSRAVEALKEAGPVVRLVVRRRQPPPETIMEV

[13] = molecular target: NHERF4_2, Q86UT5
[14] = molecular target: DLG4_2, P78352
[15] = molecular target: T9, PCLO, Q9Y6V0
T9 sequence (Q9Y6V0 4491-4600, limits assumed, looked up): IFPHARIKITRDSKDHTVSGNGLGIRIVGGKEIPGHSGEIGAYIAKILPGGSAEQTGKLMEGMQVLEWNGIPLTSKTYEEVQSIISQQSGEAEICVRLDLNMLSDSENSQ

[16] = molecular target: T10, GRIP1_4, Q9Y3R0
T10 sequence (Q9Y3R0 467-571, limits assumed, looked up): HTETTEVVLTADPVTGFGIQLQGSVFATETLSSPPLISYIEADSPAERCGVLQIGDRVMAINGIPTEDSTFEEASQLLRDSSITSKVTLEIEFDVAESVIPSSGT

[17] = molecular target: SCRIB_3, Q14160
[18] = molecular target: PDLIM1, O00151
[19] = molecular target: HTRA1, Q92743
[20] = molecular target: TJP1_2, Q07157
[21] = molecular target: NOS1, P29475
[22] = molecular target: GRID2IP_1, A4D2P6
[23] = molecular target: T11, LNX2_2, Q8N448
T11 sequence (Q8N448 334-432, limits assumed, looked up): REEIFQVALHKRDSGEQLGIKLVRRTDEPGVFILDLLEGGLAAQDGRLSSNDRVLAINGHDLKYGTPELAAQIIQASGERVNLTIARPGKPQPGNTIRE

[24] = molecular target: SCRIB_2, Q14160
[25] = molecular target: DLG1_1, Q12959
[26] = molecular target: AHNAK1, Q09666
[27] = molecular target: DLG2_2, Q15700
DLG2_2, Q15700, sequence (Q15700 189-283): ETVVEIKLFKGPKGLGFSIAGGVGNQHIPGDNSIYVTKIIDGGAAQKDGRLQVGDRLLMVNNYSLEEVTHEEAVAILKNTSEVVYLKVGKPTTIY

AHNAK1, Q09666, sequence (Q09666 4-100): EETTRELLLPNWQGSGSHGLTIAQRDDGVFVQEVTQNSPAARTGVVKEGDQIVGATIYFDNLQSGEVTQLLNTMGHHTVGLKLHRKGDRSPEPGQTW
HTRA1, Q92743, sequence (Q92743 360-477): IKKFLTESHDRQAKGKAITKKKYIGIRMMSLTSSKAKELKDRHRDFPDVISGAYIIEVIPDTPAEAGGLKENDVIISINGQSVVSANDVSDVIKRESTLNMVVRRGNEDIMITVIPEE
DLG4_2, P78352, sequence (P78352 155-259): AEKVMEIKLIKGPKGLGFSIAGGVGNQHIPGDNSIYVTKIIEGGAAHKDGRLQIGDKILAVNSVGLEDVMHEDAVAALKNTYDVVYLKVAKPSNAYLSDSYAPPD
SCRIB_2, Q14160, sequence (Q14160 857-960): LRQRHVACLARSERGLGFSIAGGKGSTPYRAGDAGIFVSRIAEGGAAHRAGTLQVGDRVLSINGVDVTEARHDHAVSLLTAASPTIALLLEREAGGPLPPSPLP
MAGI2_6, Q86UL8, sequence (Q86UL8 1141-1229): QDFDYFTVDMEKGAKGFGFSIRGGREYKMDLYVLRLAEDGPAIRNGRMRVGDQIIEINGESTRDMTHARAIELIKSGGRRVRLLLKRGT
MAGI2_3, Q86UL8, sequence (Q86UL8 600-682): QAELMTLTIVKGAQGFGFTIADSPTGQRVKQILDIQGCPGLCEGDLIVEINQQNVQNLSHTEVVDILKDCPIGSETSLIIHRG
NOS1, P29475, sequence (P29475 9-101): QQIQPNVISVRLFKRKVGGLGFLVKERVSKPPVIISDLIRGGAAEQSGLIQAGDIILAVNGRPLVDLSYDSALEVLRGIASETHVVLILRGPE
Inadl_1, Q8NI35, sequence (Q8NI35 113-229): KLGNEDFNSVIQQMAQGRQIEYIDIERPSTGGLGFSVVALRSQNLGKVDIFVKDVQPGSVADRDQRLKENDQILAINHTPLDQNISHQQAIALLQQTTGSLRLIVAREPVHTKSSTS
PDLIM1, O00151, sequence (O00151 1-87): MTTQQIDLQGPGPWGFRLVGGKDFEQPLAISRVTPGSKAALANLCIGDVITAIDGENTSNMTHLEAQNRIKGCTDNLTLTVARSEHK
GRID2IP_1, A4D2P6, sequence (A4D2P6 1-87): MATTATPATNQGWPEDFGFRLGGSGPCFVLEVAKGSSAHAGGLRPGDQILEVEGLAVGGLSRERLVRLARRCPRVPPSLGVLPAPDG
NHERF4_2, Q86UT5, sequence (Q86UT5 220-308): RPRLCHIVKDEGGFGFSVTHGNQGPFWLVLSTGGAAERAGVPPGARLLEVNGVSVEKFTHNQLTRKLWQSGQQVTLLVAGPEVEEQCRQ
LAP2, Q96RT1, sequence (Q96RT1 other isoform, or with tags, fused parts or gaps): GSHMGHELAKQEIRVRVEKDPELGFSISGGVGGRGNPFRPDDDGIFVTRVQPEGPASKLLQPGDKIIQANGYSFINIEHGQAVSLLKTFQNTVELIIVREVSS
SCRIB_3, Q14160, sequence (Q14160 999-1103): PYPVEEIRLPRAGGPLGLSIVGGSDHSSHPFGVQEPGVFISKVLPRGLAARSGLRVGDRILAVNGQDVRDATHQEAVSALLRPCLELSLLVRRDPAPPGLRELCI
TJP1_2, Q07157, sequence (Q07157 181-274): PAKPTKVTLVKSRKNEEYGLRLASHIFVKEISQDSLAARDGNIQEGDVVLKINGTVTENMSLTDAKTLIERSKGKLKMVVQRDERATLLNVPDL

Binder	pKd [1]	pKd [2]	pKd [3]	pKd [4]	pKd [5]	pKd [6]	pKd [7]	pKd [8]	pKd [9]	pKd [10]	pKd [11]	pKd [12]	pKd [13]	pKd [14]	pKd [15]	pKd [16]	pKd [17]	pKd [18]	pKd [19]	pKd [20]	further results
DQPLEKSTKL [AKAP10, O43572]	below the threshold	below the threshold	below the threshold	below the threshold	3.68	below the threshold	below the threshold	below the threshold	4.15	4.04	below the threshold	below the threshold	below the threshold	below the threshold	below the threshold	below the threshold	4.14	below the threshold	below the threshold	below the threshold	pKd [21]: below the threshold; pKd [22]: below the threshold; pKd [23]: below the threshold; pKd [24]: below the threshold; pKd [25]: below the threshold; pKd [26]: below the threshold; pKd [27]: below the threshold
DSATVRTYSC [PPFIA1, Q13136]	below the threshold	below the threshold	below the threshold	below the threshold	3.51	below the threshold	below the threshold	below the threshold	3.57	4.19	below the threshold	below the threshold	below the threshold	below the threshold	below the threshold	below the threshold	below the threshold	below the threshold	4.27	3.48	pKd [21]: below the threshold; pKd [22]: below the threshold; pKd [23]: 4.02; pKd [24]: below the threshold; pKd [25]: below the threshold; pKd [26]: below the threshold; pKd [27]: below the threshold
RELVMRVTTV [MARCHF4, Q9P2E8]	3.79	4.56	3.6	4.35	4.33	below the threshold	below the threshold	below the threshold	below the threshold	3.76	4.55	4.38	below the threshold	5.28	below the threshold	below the threshold	4.73	below the threshold	4.96	below the threshold	pKd [21]: 3.71; pKd [22]: below the threshold; pKd [23]: 5.27; pKd [24]: 4.28; pKd [25]: 5.19; pKd [26]: below the threshold; pKd [27]: 5.2
PASAKGPLGV [CLDN19, Q8N6F1]	below the threshold	below the threshold	below the threshold	below the threshold	below the threshold	below the threshold	below the threshold	below the threshold	below the threshold	below the threshold	below the threshold	below the threshold	below the threshold	below the threshold	below the threshold	below the threshold	below the threshold	below the threshold	below the threshold	below the threshold	pKd [21]: below the threshold; pKd [22]: below the threshold; pKd [23]: below the threshold; pKd [24]: below the threshold; pKd [25]: below the threshold; pKd [26]: below the threshold; pKd [27]: below the threshold
QFTLRHWLKV [SLC6A3, Q01959]	below the threshold	below the threshold	below the threshold	below the threshold	below the threshold	3.89	below the threshold	below the threshold	3.87	4.46	below the threshold	below the threshold	below the threshold	below the threshold	below the threshold	below the threshold	3.51	below the threshold	4.45	4.19	pKd [21]: below the threshold; pKd [22]: below the threshold; pKd [23]: 4.84; pKd [24]: below the threshold; pKd [25]: below the threshold; pKd [26]: below the threshold; pKd [27]: below the threshold
